Kd data for one protein are collected here from article PMC2747730 (Biochemistry, 2008).

The data set concerns the molecule itself. The data set is described as follows: PFG-NMR translational diffusion.

B1: Sml1 (suppressor of Mec1 lethality), full length wild type (natural protein, S. cerevisiae, UniProt Q04964 1-104, looked up)
chain: MQNSQDYFYAQNRCQQQQAPSTLRTVTMAEFRRVPLPPMAEVPMLSTQNSMGSSASASASSLEMWEKDLEERLNSIDHDMNNNKFGSGELKSMFNQGKVEEMDF
The protein B1 displayed a dissociation constant Kd of 93 ± 25 µM.

As usually defined, the Kd is a measure of binding affinity in units of concentration. Lower therefore signals tighter binding.
